For two molecules, ECL signal results are on record in US20120058906A1.

The target of experiment [1] is rHuman HGF R/c-MET/Fc Chimera, CF (R&D Systems Cat#358-MT/CF) (human) (UniProt P08581). Nature of the experiment: ECL (MSD Multi-Spot) binding, antigen spotted on plate; Fab 25 nM.
Experiment [2] concerns the target rHuman EGF R/Fc Chimera, CF (R&D Systems Cat#344-ER) (human) (UniProt P00533). The description is as above.
The target in experiment [3] is rHuman ErbB2/Fc Chimera, CF (R&D Systems Cat#1129-ER) (human) (UniProt P04626). The description is as above.
Experiment [4] deals with rHuman HGF R/c-MET/Fc Chimera, CF (R&D Systems Cat#358-MT/CF) (human) (UniProt P08581). In words: ECL (MSD Multi-Spot) binding, antigen spotted on plate; Fab 0.0625 nM.
Experiment [5] deals with rHuman EGF R/Fc Chimera, CF (R&D Systems Cat#344-ER) (human) (UniProt P00533). The description is as above.
Experiment [6] concerns the target rHuman ErbB2/Fc Chimera, CF (R&D Systems Cat#1129-ER) (human) (UniProt P04626). The description is as above.
The target of experiment [7] is rHuman HGF R/c-MET/Fc Chimera, CF (R&D Systems Cat#358-MT/CF) (human) (UniProt P08581). Nature of the experiment: ECL (MSD Multi-Spot) binding, antigen spotted on plate; Fab 500 nM.
The target in experiment [8] is rHuman EGF R/Fc Chimera, CF (R&D Systems Cat#344-ER) (human) (UniProt P00533). Described as above.
In experiment [9] the target is rHuman ErbB2/Fc Chimera, CF (R&D Systems Cat#1129-ER) (human) (UniProt P04626). The description is as above.
For experiment [10], the target named is rHuman HGF R/c-MET/Fc Chimera, CF (R&D Systems Cat#358-MT/CF) (human) (UniProt P08581). Nature of the experiment: ECL (MSD Multi-Spot) binding, antigen spotted on plate; Fab 1.25 nM.
Experiment [11] has as its target rHuman EGF R/Fc Chimera, CF (R&D Systems Cat#344-ER) (human) (UniProt P00533). The description is as above.
In experiment [12] the target is rHuman ErbB2/Fc Chimera, CF (R&D Systems Cat#1129-ER) (human) (UniProt P04626). The experiment is described as above.
Experiment [13] concerns the target rHuman P-Cadherin/Fc Chimera, CF (R&D Systems Cat#861-PC) (human) (UniProt P22223). Nature of the experiment: MSD ECL multi-spot assay, antigen spotted on plate, Fab 1.57 uM; blank spot 797.

B1: Fab VH5-51_IGHD5-18*01>3_IGHJ4*01_G100K_G104T & V3-4_IGLJ1*01 (Fab, V domains shown)
VH: EVQLVQSGAEVKKPGESLKISCKGSGYSFTSYWIGWVRQMPGKGLEWMGIIYPGDSDTRYSPSFQGQVTISADKSISTAYLQWSSLKASDTAMYYCARRKYSYTYDYFDYWGQGTLVTVSS
VL: QTVVTQEPSFSVSPGGTVTLTCGLSSGSVSTSYYPSWYQQTPGQAPRTLIYSTNTRSSGVPDRFSGSILGNKAALTITGAQADDESDYYCVLYMGSGISYVFGTGTKVTVL
With B1, the ECL signal in experiment [1] is 805; in [2], 821; in experiment [3], 927; in experiment [4] it was 643; in [5] it was 736; in experiment [6], 692. The ECL signal in experiment [7] turned out to be 1300; in experiment [8] it was 1110; in [9], 957; in experiment [10], 774; in experiment [11], 729; in experiment [12], 695.

B2: Fab VH1-46_IGHD3-10*01_IGHJ4*01 & O1_IGKJ1*01 (Fab, V domains shown)
VH: QVQLVQSGAEVKKPGASVKVSCKASGYTFTSYYMHWVRQAPGQGLEWMGIINPSGGSTSYAQKFQGRVTMTRDTSTSTVYMELSSLRSEDTAVYYCAREYYYGSGSYYNDYFDYWGQGTLVTVSS
VL: DIVMTQTPLSLPVTPGEPASISCRSSQSLLDSDDGNTYLDWYLQKPGQSPQLLIYTLSYRASGVPDRFSGSGSGTDFTLKISRVEAEDVGVYYCMQRIEFPSWTFGQGTKVEIK
In the case of B2, the ECL signal in experiment [13] was 2030.
